Source: the nanobody polyreactivity screen of Harvey et al. (2022)

Experiment: yeast display, Sf9 membrane polyspecificity reagent, FACS + sequencing; frameworks hold sequencing errors
In short: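 A nanobody's polyreactivity label depends on the gate it was sorted from. Yeast display cells were stained with 10% biotinylated, detergent-solubilized Sf9 membrane reagent for 1 hour at 4 °C, enriched on streptavidin microbeads and sorted by FACS. The low and high (top ~1%) gates were set on anti-HA fluorescence for expression and streptavidin fluorescence for reagent binding.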

Row | Sequence | polyreactivity (PSR sort gate)
1 | QVQLVESGGGLVQAGGSLSLSCAASGSTFAYYAMGWYREAPGQERELVAGITWTGGSTYYADSVKGRFTISRDNAKNSVYLQMNSLKPEDTAVYYCAADRYFYEGDYWGQVTQVTVSS | low polyreactivity
2 | QVQLVESGGGLVQAGGSLRLSCAASGRIFDTNVMGWYRQAPGKERELVAAISSGGSTYYADSVKGRFTISRDNAKNTVYLQMNSLKPEDTAVYFCAAESRTSRARRYYWGQGTQVTVSS | high polyreactivity
3 | QVQLVESGGGLVQAGGSLRLSCAASGRIITTYAMGWYRQAPGKERELVAAISRSSGSTYYADSVKGRFTISRDNAKNTVYLQMNSLKPEDTAVYYCNAYQRKSGRYDYWGQGTQVTVSS | high polyreactivity
4 | QVQLVESGVGLVQAGGSLRLSCAASGLTFPWYTMGWNRQAPGKERELVAAINSRGGSTYYADSVKGRFTISRDNAKNTVYLQMNRLKPVDTAVYYCATRSFGRMDYWGQGTQVTVSS | high polyreactivity
5 | QVQLVESGGGLVQAGGSLRLSCAASGSIFWPNVMGWYRQAPGKDRELVAAIRSDGSTYYADSVKGRFTISRDNAKNTVYLQMNSLKPEDAAVYYCATKFFRQTIYRAKYNYWGQGTQVTVSS | low polyreactivity
6 | QVQLVESGGGLVQAGGSLRLSCAASGFTFKLNAMGWYRQAPGKERELVAAISWGGGTTYYADSVKGRFTISRDNAKNTVYLQMNSLKPEDTAVYYCAADGTGTYDYWGQGTQVTVSS | low polyreactivity
7 | QVQLVESGGGLVQAGGSLCLSCAASGIFVYNAIGWYRQAPGKEREFVAAINKSGASTFYADSVKGRFTISRDNAKNTVYLQMNRLKPEDTAVYYCRERDYWGQGTQVTVSS | low polyreactivity
8 | QVQLVESGGGLVQAGGSLRLSCAASGSIFGYNVMGWYRQAPGKERDLVAAITYSGGSTYYADSVKGRFTISRDNAKNTVYLQMNSLKPEDTAVYYCAKVTGRRFPAYGYDHWGQGTQVTVSS | high polyreactivity
9 | QVQRVESGGGLVQAGGRLRLSFAAAGIIFKVNAMGWYRQAPGKERELVPAISWSGSSTYYADSVKGRFTISRDNAKNTVYLQMNSLKPEDTAVYYCGTRWFAVHMYWGQGTQVTVSS | high polyreactivity
10 | QVQLVESGGGLVQAGGSLRLSCAASGITFYDNAMGWYRQAPGKERELVAAIRSGDSTYYADSVKGRFTISRDNAKNTVYLQMNSLKPEDTAVYYCAARTPWVYYWRFYYWGQGTQVTVSS | high polyreactivity
11 | QVQLVESGGGLVQAGGSLRLSCAASGSTFVQYAMGWYRQAPGKERELVAAITSGGRTNYADSVNGRFTISRDNAKNTVYLQMNSLKPEDTAVYYCAARYGSNSPRRYEYYYWGQGTQVTVSS | low polyreactivity
12 | QVQLVESGGGLVQAGGSLRLSCAASVSTFDDNAMGWYIQAPGKERELVASITYRGGSTYYADSVKGRFTISRDNAKNTVYLQMNSLKPEDTAVYYCNADYTGAEYDYWGQGTQVTVSS | low polyreactivity
13 | QVQHVESGGGLVQARGSLRLSCAASGSIFDLNAMGRYRQAPGKERELVAAISSGGGTYYADSVKGRFTISRDNSKNTVYLQMNSLKPVDTAVYYCKRVTRWTYNYWGQGTQVTVSS | high polyreactivity
14 | HVQLVESGGGLVQAGGSLRLSCAASGFIFRGHVMGWYRQAPGKERELVAAISGGSTTYADSVKGRFTISRDNAKTTVYLQMNSLKPEDTAVYYCAKRDQDRTFPNGYWGQGTQVTVSS | high polyreactivity
15 | QVQLVESGGGLVQAGGSLRLSCAASGFIFYEYDMGWYRQAPGKEGELVAAISVSGGSTYYADSVKGRFTISRDNAKNTVYLQMNSLKPEDTAVYYCAVFLPDYGRYDYWGQGTQVTVSS | low polyreactivity
16 | QVQLVESGGGLVQAGGSLRLSCAASGYIFTGNAMGWYRQAPGKERELVAAIDSGGSTYADSVKGRFTISRDNAKNTVYLQMNSLKPEDTAVYYCNADQNEDTYLSYYGDYDYWGQGTQVTVTS | low polyreactivity
17 | QVQLVESGGGLVQAGGSLRLSCAASGYNFGWYAMGWYRQAPGKERELVAGISSAGSTNYADSVKGRFTISRDNAKNTVYLQMNSLKPEDTSVDYCARDKWGLRYAPTVDYWGQGTQVTVSS | high polyreactivity
18 | QVQLVESGGGLQQAGGSLRLSCDASGITFRQYTMGWCRQAPGKERELVAAITSSGRTYYADSVKGRFTISRDNAKNTVYLHMNSLKPEDTAVYYCAAETYYFGYGYWGQGTQVTVSS | high polyreactivity
19 | QVQLVESGGGLVQAGGSLRLSCAASGIIFTSNTMGWYRQAPGKEREFVASINWNGSSTYADSVKGRFTISRDNAKNTVYLQMNSLKPEDTAVYYCAAEASPRLYRKYDYWGQGTQVTVSS | low polyreactivity
20 | QVQHVDSAGGLVQAGGSLRLSCAASGSTFAPNAMGWYRQAPGKERELVAAISFRGVRTYYADSVKGRFTISRDNAKNTVYLQMNCLKPEDTAVYYCNKRVQRRNKPGAYNYEYWGQGTQVTVSS | high polyreactivity
21 | QVQLVESGGGLVQAGGSLRLSCAASGRIFAENAMGWYRQAPGKERELVAAISRTGSRTYYADSVKGRFTISRDNAKNTVYLQMNSLKPEDSAVYYCNKVSAQDEFRSRGYWGQGTQVTVSS | high polyreactivity
22 | QVQIVESGGGLVQAGGSLRLSCAASGSNNGYYTMGWYRQAPRKERELVAAINYSGGRTYYADSVKGRFTISRDNAKNTVYFQMNSLKPEDTAVYYCARAYYYGSDIMDYWGQGTQVTVSS | high polyreactivity

Row | Sequence | polyreactivity (PSR sort gate)
23 | QVQLVESVGGLFQAGGSLRLSCDASGFTFTAYAMGWYIQAPGKERELVAAINWSGSRTYYADSVKGRFTISRDNAKNTVYLQMNSLKPEDTAVYYCNTATSKSSYRHYDYWGQGTQVTVSS | high polyreactivity
24 | QVQLVESGVGLVQAGGSLRLSCAASGRTFFGYAMGWYRQAPGKEREFVASISKRGGRTYYADSVKGRFTISRDNAKNSVYLQMNSLKPEDTAVYYCNAYESYPDPLTMEYWGQGTQVTVSS | high polyreactivity
25 | QVQLVESGGGLVQAGGSLRLSCAASGSTFAGNAMGWYRQAPGKERELVAAITSGTGTHYADSVKGRFTISRDNAKNSVYLQMNSLKPEDTAVYYCAAEVWTWAGIWGYEYWGQGTQVTVSS | low polyreactivity
26 | QVQIVESGGGLVQAGGSLRLSCAASGRTFWRYTMGWYRQAPGKERELVASISTGGGSTYYADSVKGRFTISRDNAKNTVYLQMNSLKPEDTAVYYCNVEYVSVSRVWRGNYWGQGTQVTVSS | low polyreactivity
27 | QVQLVESGGGLVQAGGSLRLSCAASGSTFGLNAMGWYRQAPGKERELVAAITRSDITNYADSVKGRFTISRDNAKNTVYLQMNSLKPEDTAVDYCAARGLWPYDYWGQGTQVTVSS | low polyreactivity
28 | QVQLVESGGGLVQAGGSLRLSCAASGFTFYYYAMGWYRQAPGKERELVARITSGGSTYYADSVKGRFTISRDNAMYTVYLQMNCLKPEDTAVYYCNVDVSVEVAYWGQGTQVTVSS | low polyreactivity
29 | QVQLVESGGGLVQAGGSLRLSCAASGFTFTYNDMGWYRQAPGKEREFVAAISSTGGSTYYADSVKGRFTISRDNAKNTVYLQMNSLKPEDTAVYYCAAEDSWYWDAWFDYWGQGTQVTVSS | low polyreactivity
30 | QVQLQESSGGLVQAGGSLRMSCAASGTIFHFHIMGWYRQAPGKEREFVAAISYGTSTYYADSVKGRFTISRDNAKKTVYLQMNSQKPEDTAVYYCAVYDDLEVYCWYWGQGTEVTVSS | low polyreactivity
31 | QVQLVESGGGLVQAGGSLRLSCAASGSIYVYYGMGWYRQAPGKERELVAAISSGGSTHYADSVKGRFTISRDNAKNTVYLQMNSLKPEDTAVYYCAADRFFWLRSYPRYYYWGQGTQVTVSS | low polyreactivity
32 | QVQLVESGGGLVQAGGSLRLSCAASGRTFSSYAMGWYRQAPGKERELVAAIDSGGNTYADSVKGRFTISRDNAKNTVYLQMNSLKPEDTAVYYCAVDGGEFSSYGYWGQGTQVTVSS | low polyreactivity
33 | QVQLGESGGGLVQSGGSLRLSCAASGSIFDWYDKGWYRQAPGKERELVATITRDGSTNYADSVKGRFTISRDNAKNTVYLQMNSLKPEDTAVYYCAAESRRFWYGLFGNEYGYWGQGTQVTVSS | low polyreactivity
34 | QVQLVESGGGLVQAGGSLRISCAASGSIFPEYAMGWYRQAPGKERELVAAITTSGGSTYYADSVKGRFTISRDNAKNTVYLQMNSLKPEDTAVYYCAVEYLVYLDYTYDYWGQGTQVTVSS | low polyreactivity
35 | QVQLVESGGGLVQAGGSLRLSCADYGYIFVGNAMGCYRQAPGKDRELVAAINSGGSTNYADSVKGRFTISRDNEKNTVYLQMNSLKPEDTAVYYCNAEAPRYNYGRMDYLGQGTQVTVSS | low polyreactivity
36 | QVQRVESGGGLVQAGGSLRLSCAASGSIFYRNVMGWYRPAPGKERELVAAISSGTSTYYADSVKGRFTISRDNAKNTVYLQMTSLKPEDPAVYYCAAEGPHYYGQRWYYGVDYWGQGTQVTVSS | low polyreactivity
37 | QVQLVESGGGLVQAGGSLRLTCAASGRTLRNYAMGWYRQPPGKERELVATITYRGGSTYYADSVKGRFTISRDNAKNTVYLKRNCLKPEDTAVYYCAARTSSYSFQYAYNYWGQGTQVTVSS | high polyreactivity
38 | QVQLVESGGGLVQAGGSLRLSCAASGSTFTRNAMGWYRQAPGKERELVATISSGGSTNYADSVKGRFTISRDNAKNTVYLQMNSLKPEDTAVYYCAKRSLYRYYYWGQGTQVTVSS | high polyreactivity
39 | QVQLVESGGGLVQAGGSLRLSCAASGRTFSGNAMGWYIQAPRKDRELVAAISSGGSTNYADSVKGRFTISRDNAKNTVYLQMNSLEPEDTAVYYCAADEWRFPSYAYYYWGQGTQVTVSS | low polyreactivity
40 | QVQLVESGGGLVQAGGSLRLSCAASGGTFARNAMGWYRQAPGKERELVATITRRAGNTYYADSVKGRFTISRDNAKNTVYLEMNSLKREDTAVYYCAGVATWGFYPYLIPEVGNDYWGQGTQVTVSS | high polyreactivity
41 | QVQIVESGGGLVQAGGSLRLSCAASGRTFAWYAMGWYRQAPGKERELVAAITWSGGSTYYADSVKGRFTISRDNAKNTVYLQMNSLKPEETAVYYCAARTVVGWYSRYCYWGQGTQVTVSS | low polyreactivity
42 | QVQLVESGGGLVQAGGSLRLSCAASGGTFETYALGWYIPAPGKEREFVAANSRSGGSTYYADSVKGRFTISRDNAKNTVYLQMNSLKPEDTAVYYCAAEGYDLSSRVYGGYDYWGQGTQVTVSS | low polyreactivity
43 | QVQLVESGGGLVQAGGSLRLSCAASGSTFGYYAMGWYRQAPGKERELVAAISYRSGSTYYADSVKGRFTISRDNAKNTVYLQMNSLKPEDTAVYYCAAVIQGQQRYEYWGQGTQVTVSS | high polyreactivity
